Test results from the supplement of paper PMC10724198.
± gives the standard deviation of the averaged measurements.

Legend:
[1] = tested on: Saccharomyces cerevisiae; assay: protein stability index of tFT-peptide fusion (C-terminal peptide) (PSI (0-1 scale)); higher = more stable (slower turnover)
Method: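 MPS profiling in S. cerevisiae of the tFT-X12 degron library: putative degron peptides plus stable controls, 12 aa, fused to the C-terminus of a sfGFP-mCherry timer. Cells are FACS-sorted into 8 mCherry/sfGFP bins and deep-sequenced. PSI runs from 0 (unstable) to 1 (stable). Backgrounds are wild type, das1Δ and doa10Δ at 30 °C, and wild type, das1Δ, cdc34-1 and cdc53-1 at 37 °C; 2-3 technical replicates each.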

[2] = tested on: Saccharomyces cerevisiae; assay: as above; settings: genetic background: wild type; temperature: 30 C
[3] = genetic background: cdc34-1, temperature: 37 C
[4] = genetic background: cdc53-1, temperature: 37 C
[5] = genetic background: das1 deletion, temperature: 30 C
[6] = genetic background: das1 deletion, temperature: 37 C
[7] = genetic background: doa10 deletion, temperature: 30 C
[8] = genetic background: wild type, temperature: 30 C
[9] = genetic background: wild type, temperature: 37 C
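Further: PSI is a weighted mean of sequencing reads over stability bins, variants kept only with over 10 reads, mCherry proximal and sfGFP distal, peptide attached via GGGS linker.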

Sequence | protein stability index [1, 3] | protein stability index [1, 4] | protein stability index [1, 5] | protein stability index [1, 6] | protein stability index [1, 7] | protein stability index [1, 8] | protein stability index [1, 9] | protein stability index [2]
GVFVVVGEASVH | 0.546 ± 0.0025 | 0.5995 ± 0.0049 | 0.402 ± 0.023 | 0.574 ± 0.0029 | 0.389 ± 0.021 | 0.406 ± 0.017 | 0.564 ± 0.011 | 0.421 ± 0.023
GVFVWVVFVCTM | 0.145 ± 0.015 | 0.315 ± 0.029 | 0.198 ± 0.017 | 0.3718 ± 0.00094 | 0.167 ± 0.0025 | 0.201 ± 0.013 | 0.315 ± 0.028 | 0.268 ± 0.053
GVKSQLYSFVWF | 0.6552 ± 0.0036 | 0.74 ± 0.015 | 0.633 ± 0.023 | 0.747 ± 0.013 | 0.3088 ± 0.0017 | 0.352 ± 0.018 | 0.593 ± 0.014 | 0.45 ± 0.015
GVRCRLVIRVLG | 0.47 ± 0.035 | 0.508 ± 0.0085 | 0.286 ± 0.016 | 0.516 ± 0.0056 | 0.16864 ± 0.00011 | 0.22 ± 0.0075 | 0.407 ± 0.0064 | 0.316 ± 0.028
GVSFLFVGVSLV | 0.469 ± 0.065 | 0.499 ± 0.01 | 0.34 ± 0.031 | 0.5503 ± 0.0019 | 0.3088 ± 0.00076 | 0.354 ± 0.015 | 0.523 ± 0.019 | 0.419 ± 0.041
GVVCWVVVFGGW | 0.307 ± 0.029 | 0.5008 ± 0.0019 | 0.281 ± 0.029 | 0.512 ± 0.0065 | 0.233 ± 0.0029 | 0.262 ± 0.034 | 0.442 ± 0.058 | 0.416 ± 0.035
GVWSLDWFLLVW | 0.0785 ± 0.021 | 0.187 ± 0.026 | 0.158 ± 0.016 | 0.223 ± 0.0023 | 0.134 ± 0.016 | 0.15 ± 0.023 | 0.217 ± 0.017 | 0.24 ± 0.016
GWFCLFFVVSTG | 0.213 ± 0.034 | 0.3162 ± 0.0016 | 0.225 ± 0.024 | 0.4003 ± 0.0021 | 0.203 ± 0.0087 | 0.225 ± 0.031 | 0.371 ± 0.012 | 0.342 ± 0.026
GWIFFYFTWFVG | 0.127 ± 0.018 | 0.236 ± 0.025 | 0.198 ± 0.028 | 0.319 ± 0.017 | 0.181 ± 0.029 | 0.172 ± 0.035 | 0.275 ± 0.0097 | 0.263 ± 0.022
GWLSVLVYFLSG | 0.471 ± 0.025 | 0.545 ± 0.03 | 0.387 ± 0.034 | 0.5619 ± 0.0042 | 0.284 ± 0.0044 | 0.326 ± 0.0091 | 0.481 ± 0.022 | 0.408 ± 0.03
GWVSCCVWSFLV | 0.243 ± 0.028 | 0.5924 ± 0.0053 | 0.531 ± 0.016 | 0.663 ± 0.0083 | 0.066 ± 0.012 | 0.066 ± 0.0087 | 0.063 ± 0.016 | 0.122 ± 0.015
HALCLSVYVSAH | 0.265 ± 0.0049 | 0.304 ± 0.022 | 0.249 ± 0.031 | 0.397 ± 0.018 | 0.179 ± 0.0045 | 0.185 ± 0.02 | 0.323 ± 0.018 | 0.281 ± 0.024
HCLLQDVPPTLH | 0.641 ± 0.026 | 0.6925 ± 0.0062 | 0.711 ± 0.051 | 0.678 ± 0.014 | 0.703 ± 0.021 | 0.702 ± 0.015 | 0.66 ± 0.02 | 0.734 ± 0.031
HCNRRNKIYWYS | 0.6116 ± 0.00076 | 0.73 ± 0.012 | 0.689 ± 0.063 | 0.739 ± 0.051 | 0.106 ± 0.019 | 0.111 ± 0.032 | 0.189 ± 0.014 | 0.304 ± 0.051
HILRLVYFIVYE | 0.402 ± 0.01 | 0.533 ± 0.028 | 0.316 ± 0.044 | 0.504 ± 0.0089 | 0.264 ± 0.01 | 0.293 ± 0.015 | 0.554 ± 0.017 | 0.4189 ± 0.003
HLYCYNILLVSG | 0.2001 ± 0.00066 |  | 0.306 ± 0.04 | 0.419 ± 0.007 | 0.201 ± 0.018 | 0.254 ± 0.015 | 0.375 ± 0.038 | 0.286 ± 0.042
HSPRVLLPLYFR | 0.199 ± 0.064 | 0.133 ± 0.013 | 0.301 ± 0.035 | 0.365 ± 0.033 | 0.672 ± 0.02 | 0.278 ± 0.037 | 0.328 ± 0.021 | 0.378 ± 0.086
ICFPLQIFRILV | 0.408 ± 0.013 | 0.46 ± 0.019 | 0.348 ± 0.021 | 0.4919 ± 0.0042 | 0.211 ± 0.014 | 0.246 ± 0.019 | 0.345 ± 0.006 | 0.3549 ± 0.0027
IEVGVAILLLGE | 0.646 ± 0.042 | 0.668 ± 0.0081 | 0.551 ± 0.03 | 0.6842 ± 0.0029 | 0.5066 ± 0.0028 | 0.529 ± 0.01 | 0.6791 ± 0.0027 | 0.514 ± 0.12
IFFSLFFFFLCN | 0.353 ± 0.06 | 0.413 ± 0.0066 | 0.356 ± 0.027 | 0.526 ± 0.068 | 0.35 ± 0.03 | 0.289 ± 0.011 | 0.4212 ± 0.0014 | 0.35 ± 0.056

Sequence | protein stability index [1, 3] | protein stability index [1, 4] | protein stability index [1, 5] | protein stability index [1, 6] | protein stability index [1, 7] | protein stability index [1, 8] | protein stability index [1, 9] | protein stability index [2]
IGLSIWSVVSAL | 0.652 ± 0.042 | 0.689 ± 0.015 | 0.535 ± 0.016 | 0.6826 ± 0.0014 | 0.253 ± 0.0069 | 0.286 ± 0.033 | 0.5056 ± 0.0043 | 0.392 ± 0.024
IILGVRQIEVNS | 0.488 ± 0.012 | 0.517 ± 0.031 | 0.358 ± 0.029 | 0.526 ± 0.021 | 0.323 ± 0.0071 | 0.373 ± 0.031 | 0.52 ± 0.0076 | 0.4447 ± 0.0033
IKSIKQNKIKTI | 0.619 ± 0.051 | 0.648 ± 0.021 | 0.653 ± 0.029 | 0.699 ± 0.026 | 0.186 ± 0.013 | 0.171 ± 0.079 | 0.246 ± 0.032 | 0.292 ± 0.008
IKTKGRYKKQRT | 0.632 ± 0.051 | 0.709 ± 0.01 | 0.679 ± 0.049 | 0.743 ± 0.037 | 0.34 ± 0.018 | 0.376 ± 0.058 | 0.572 ± 0.045 | 0.408 ± 0.014
ILFIVSSCGCVG | 0.543 ± 0.031 | 0.557 ± 0.039 | 0.445 ± 0.037 | 0.5904 ± 0.0013 | 0.443 ± 0.024 | 0.446 ± 0.015 | 0.5724 ± 0.0043 | 0.471 ± 0.0064
ILISVNRVVLYC | 0.364 ± 0.016 | 0.4123 ± 0.0011 | 0.289 ± 0.027 | 0.461 ± 0.011 | 0.115 ± 0.014 | 0.14 ± 0.017 | 0.1901 ± 0.00075 | 0.2171 ± 0.00013
ILRKTAFRLRVL | 0.623 ± 0.047 | 0.635 ± 0.0073 | 0.525 ± 0.011 | 0.658 ± 0.023 | 0.228 ± 0.016 | 0.264 ± 0.024 | 0.376 ± 0.01 | 0.397 ± 0.025
IMWCSSVSEVQW | 0.538 ± 0.075 | 0.582 ± 0.0064 | 0.472 ± 0.027 | 0.518 ± 0.0069 | 0.492 ± 0.03 | 0.494 ± 0.047 | 0.5016 ± 0.0029 | 0.4741 ± 0.0032
IPFRRCFWFFWV | 0.537 ± 0.029 | 0.7 ± 0.011 | 0.593 ± 0.035 | 0.6909 ± 0.0044 | 0.143 ± 0.014 | 0.167 ± 0.024 | 0.204 ± 0.027 | 0.2345 ± 0.0012
ISSYKFLRIVLV | 0.384 ± 0.01 | 0.435 ± 0.0053 | 0.335 ± 0.026 | 0.509 ± 0.022 | 0.131 ± 0.031 | 0.149 ± 0.032 | 0.191 ± 0.0035 | 0.189 ± 0.0046
ISVSFSVIFFLL | 0.266 ± 0.0073 | 0.398 ± 0.019 | 0.372 ± 0.019 | 0.4778 ± 0.0024 | 0.0751 ± 0.0046 | 0.0951 ± 0.01 | 0.137 ± 0.002 | 0.154 ± 0.044
IWIRLGSENTVI | 0.7085 ± 0.0014 | 0.7221 ± 0.007 | 0.646 ± 0.036 | 0.7489 ± 0.00087 | 0.672 ± 0.026 | 0.653 ± 0.032 | 0.78 ± 0.015 | 0.443 ± 0.22
IWWFKELRVCRV | 0.506 ± 0.014 | 0.559 ± 0.013 | 0.435 ± 0.022 | 0.5589 ± 0.0019 | 0.4128 ± 0.0013 | 0.424 ± 0.024 | 0.539 ± 0.017 | 0.49 ± 0.013
IYFFFFALHFPN | 0.498 ± 0.083 | 0.521 ± 0.013 | 0.366 ± 0.054 | 0.535 ± 0.029 | 0.388 ± 0.019 | 0.407 ± 0.025 | 0.544 ± 0.047 | 0.524 ± 0.067
KAIILGNIKINF | 0.729 ± 0.018 | 0.744 ± 0.016 | 0.6368 ± 0.0023 | 0.714 ± 0.011 | 0.638 ± 0.026 | 0.624 ± 0.018 | 0.741 ± 0.045 | 0.539 ± 0.16
KALFPGLLLCAF | 0.168 ± 0.0027 | 0.188 ± 0.0038 | 0.239 ± 0.02 | 0.292 ± 0.012 | 0.204 ± 0.0091 | 0.232 ± 0.022 | 0.268 ± 0.017 | 0.307 ± 0.014
KLLDHFVKIRVY | 0.164 ± 0.021 | 0.2 ± 0.0077 | 0.225 ± 0.044 | 0.416 ± 0.0072 | 0.0632 ± 0.0066 | 0.0674 ± 0.024 | 0.0534 ± 0.03 | 0.0988 ± 0.0069
KLRELQVRQQLS | 0.648 ± 0.1 | 0.677 ± 0.015 | 0.635 ± 0.03 | 0.7272 ± 0.0049 | 0.189 ± 0.021 | 0.199 ± 0.025 | 0.413 ± 0.017 | 0.382 ± 0.02
LAEHIFLVLDHG | 0.451 ± 0.026 | 0.485 ± 0.013 | 0.428 ± 0.0085 | 0.499 ± 0.0062 | 0.463 ± 0.024 | 0.432 ± 0.0071 | 0.478 ± 0.0089 | 0.453 ± 0.013
